Data on 2 molecules can be found in US6015562, “Targeted forms of methyltrithio antitumor agents” (American Cyanamid Company, dated 2000).

Assay [1] deals with T1, polymorphic epithelial mucin (PEM) (human, UniProt P15941). As to the kind of experiment: order of binding activity from all the direct binding ELISA assays on PEM. In general terms: An ELISA detects its analyte on a solid surface through an enzyme-linked reagent.
In assay [2] the target is T1, polymorphic epithelial mucin (PEM). Description: direct binding ELISA, PEM-coated microwell plates, culture supernatant.

B1: gL1cH (CDR-grafted light chain gL1 with chimeric heavy chain; plasmids pAL47 and pHMC33) (antibody, V domains shown)
VH: QIQLQQSGPELVKPGASVKISCKASGYTFTDYYINWMKQKPGQGLEWIGWIDPGSGNTKYNEKFKGKATLTVDTSSSTAYMQLSSLTSEDTAVYFCAREKTTYYYAMDYWGQGTSVTVS
VL: DIQMTQSPSTLSASVGDRVTITCRSSKSLLHSNGDTFLYWFQQKPGKAPKLLMYRMSNLASGVPSRFSGSGSGTEFTLTISSLQPDDFATYYCMQHLEYPFTFGQGTKVEVKR
Regarding B1, the binding result in assay [1] is given as “binds”.

B2: cLgH2 (chimeric light chain with CDR-grafted heavy chain gH2; plasmids pAL52 and pAL41) (antibody, V domains shown)
VH: QIQLVQSGAEVKKPGSSVKVSCKASGYTFTDYYINWMRQAPGQGLEWIGWIDPGSGNTKYNEKFKGRATLTVDTSTNTAYMELSSLRSEDTAFYFCAREKTTYYYAMDYWGQGTLVTVSS
VL: DIVMTQAAPSVPVTPGESLSISCRSSKSLLHSNGDTFLYWFLQRPGQSPQLLIYRMSNLASGVPDRFSGSGSGTAFTLRVSRVEAEDVGVYYCMQHLEYPFTFGAGTKLELKR
Regarding B2, the binding result in assay [2] was “binds”.
